Reference: the supplement of paper PMC5998384

How the values were obtained:
HeLa Kyoto [1] = test: melting temperature (median over replicates), in situ; higher = more thermally stable
HeLa Kyoto [2] = test: solubility change mitosis vs G1/S (difference of NP-40 vs SDS log2 ratios) (log2 ratio difference); higher = more soluble in mitosis
HeLa Kyoto [3] = test: solubility in G1/S (NP-40 vs SDS abundance) (log2 ratio); higher = more soluble; conditions: cell cycle stage: G1/S
HeLa Kyoto [4] = test: thermal stability score vs G1/S (z-score of summed log2 fold changes over temperatures); higher = more thermally stable than in G1/S
[5] = cell cycle stage: early G1 (4.5 h after nocodazole release)
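Wherever melting temperature (median over replicates), in situ is given: HeLa Kyoto cells synchronized by double thymidine or nocodazole block, proteins quantified by TMT10plex mass spectrometry, three independent biological replicates.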
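Wherever solubility change mitosis vs G1/S (difference of NP-40 vs SDS log2 ratios) is given: synchronized HeLa Kyoto cells (double thymidine block for G1/S, nocodazole release for mitosis), protein amounts in NP-40 versus SDS lysates quantified by mass spectrometry, three biological replicates.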
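Wherever solubility in G1/S (NP-40 vs SDS abundance) is given: HeLa Kyoto cells arrested at G1/S by double thymidine block, proteins quantified by TMT10plex mass spectrometry in mild NP-40 versus SDS extracts, three biological replicates.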
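Wherever thermal stability score vs G1/S (z-score of summed log2 fold changes over temperatures) is given: synchronized HeLa Kyoto cells, proteins quantified by TMT10plex mass spectrometry, three biological replicates, mitosis taken 0.5 h after nocodazole release, G1/S directly after double thymidine block.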

Sequence	melting temperature (HeLa Kyoto [1]; cell cycle stage: G1/S) [°C]	melting temperature (HeLa Kyoto [1]; cell cycle stage: mitosis) [°C]	solubility change mitosis (log2) (HeLa Kyoto [2])	solubility in G1/S (log2) (HeLa Kyoto [3])	thermal stability score (HeLa Kyoto [4]; [5])	thermal stability score (HeLa Kyoto [4]; cell cycle stage: mitosis)
MAGTSAPGSKRRSEPPAPRPGPPPGTGHPPSKRARGFSAAAAPDPDDPFGAHGDFTADDLEELDTLASQALSQCPAAARDVSSDHKVHRLLDGMSKNPSGKNRETVPIKDNFELEVLQAQYKELKEKMKVMEEEVLIKNGEIKILRDSLHQTESVLEEQRRSHFLLEQEKTQALSDKEKEFSKKLQSLQSELQFKDAEMNELRTKLQTSERANKLAAPSVSHVSPRKNPSVVIKPEACSPQFGKTSFPTKESFSANMSLPHPCQTESGYKPLVGREDSKPHSLRGDSIKQEEAQKSFVDSWRQRSNTQGSILINLLLKQPLIPGSSLSLCHLLSSSSESPAGTPLQPPGFGSTLAGMSGLRTTGSYDGSFSLSALREAQNLAFTGLNLVARNECSRDGDPAEGGRRAFPLCQLPGAVHFLPLVQFFIGLHCQALQDLAAAKRSGAPGDSPTHSSCVSSGVETNPEDSVCILEGFSVTALSILQHLVCHSGAVVSLLLSGVGADSAAGEGNRSLVHRLSDGDMTSALRGVADDQGQHPLLKMLLHLLAFSSAATGHLQASVLTQCLKVLVKLAENTSCDFLPRFQCVFQVLPKCLSPETPLPSVLLAVELLSLLADHDQLAPQLCSHSEGCLLLLLYMYITSRPDRVALETQWLQLEQEVVWLLAKLGVQSPLPPVTGSNCQCNVEVVRALTVMLHRQWLTVRRAGGPPRTDQQRRTVRCLRDTVLLLHGLSQKDKLFMMHCVEVLHQFDQVMPGVSMLIRGLPDVTDCEEAALDDLCAAETDVEDPEVECG [ATRIP]	50.9	51.5	0.065	0.243	0.257	0.455
MAGVACLGKAADADEWCDSGLGSLGPDAAAPGGPGLGAELGPGLSWAPLVFGYVTEDGDTALHLAVIHQHEPFLDFLLGFSAGTEYMDLQNDLGQTALHLAAILGETSTVEKLYAAGAGLCVAERRGHTALHLACRVGAHACARALLQPRPRRPREAPDTYLAQGPDRTPDTNHTPVALYPDSDLEKEEEESEEDWKLQLEAENYEGHTPLHVAVIHKDVEMVRLLRDAGADLDKPEPTCGRSPLHLAVEAQAADVLELLLRAGANPAARMYGGRTPLGSAMLRPNPILARLLRAHGAPEPEGEDEKSGPCSSSSDSDSGDEGDEYDDIVVHSSRSQTRLPPTPASKPLPDDPRPV [NFKBIB]	49.3	50	-0.224	0.533	0.217	0.0879
MAGVEEVAASGSHLNGDLDPDDREEGAASTAEEAAKKKRRKKKKSKGPSAAGEQEPDKESGASVDEVARQLERSALEDKERDEDDEDGDGDGDGATGKKKKKKKKKRGPKVQTDPPSVPICDLYPNGVFPKGQECEYPPTQDGRTAAWRTTSEEKKALDQASEEIWNDFREAAEAHRQVRKYVMSWIKPGMTMIEICEKLEDCSRKLIKENGLNAGLAFPTGCSLNNCAAHYTPNAGDTTVLQYDDICKIDFGTHISGRIIDCAFTVTFNPKYDTLLKAVKDATNTGIKCAGIDVRLCDVGEAIQEVMESYEVEIDGKTYQVKPIRNLNGHSIGQYRIHAGKTVPIVKGGEATRMEEGEVYAIETFGSTGKGVVHDDMECSHYMKNFDVGHVPIRLPRTKHLLNVINENFGTLAFCRRWLDRLGESKYLMALKNLCDLGIVDPYPPLCDIKGSYTAQFEHTILLRPTCKEVVSRGDDY [METAP2]	58.1	57	-0.0109	-0.0489	-2.19	-2.92
MAHSKTRTNDGKITYPPGVKEISDKISKEEMVRRLKMVVKTFMDMDQDSEEEKELYLNLALHLASDFFLKHPDKDVRLLVACCLADIFRIYAPEAPYTSPDKLKDIFMFITRQLKGLEDTKSPQFNRYFYLLENIAWVKSYNICFELEDSNEIFTQLYRTLFSVINNGHNQKVHMHMVDLMSSIICEGDTVSQELLDTVLVNLVPAHKNLNKQAYDLAKALLKRTAQAIEPYITNFFNQVLMLGKTSISDLSEHVFDLILELYNIDSHLLLSVLPQLEFKLKSNDNEERLQVVKLLAKMFGAKDSELASQNKPLWQCYLGRFNDIHVPIRLECVKFASHCLMNHPDLAKDLTEYLKVRSHDPEEAIRHDVIVSIVTAAKKDILLVNDHLLNFVRERTLDKRWRVRKEAMMGLAQIYKKYALQSAAGKDAAKQIAWIKDKLLHIYYQNSIDDRLLVERIFAQYMVPHNLETTERMKCLYYLYATLDLNAVKALNEMWKCQNLLRHQVKDLLDLIKQPKTDASVKAIFSKVMVITRNLPDPGKAQDFMKKFTQVLEDDEKIRKQLEVLVSPTCSCKQAEGCVREITKKLGNPKQPTNPFLEMIKFLLERIAPVHIDTESISALIKQVNKSIDGTADDEDEGVPTDQAIRAGLELLKVLSFTHPISFHSAETFESLLACLKMDDEKVAEAALQIFKNTGSKIEEDFPHIRSALLPVLHHKSKKGPPRQAKYAIHCIHAIFSSKETQFAQIFEPLHKSLDPSNLEHLITPLVTIGHIALLAPDQFAAPLKSLVATFIVKDLLMNDRLPGKKTTKLWVPDEEVSPETMVKIQAIKMMVRWLLGMKNNHSKSGTSTLRLLTTILHSDGDLTEQGKISKPDMSRLRLAAGSAIVKLAQEPCYHEIITLEQYQLCALAINDECYQVRQVFAQKLHKGLSRLRLPLEYMAICALCAKDPVKERRAHARQCLVKNINVRREYLKQHAAVSEKLLSLLPEYVVPYTIHLLAHDPDYVKVQDIEQLKDVKECLWFVLEILMAKNENNSHAFIRKMVENIKQTKDAQGPDDAKMNEKLYTVCDVAMNIIMSKSTTYSLESPKDPVLPARFFTQPDKNFSNTKNYLPPEMKSFFTPGKPKTTNVLGAVNKPLSSAGKQSQTKSSRMETVSNASSSSNPSSPGRIKGRLDSSEMDHSENEDYTMSSPLPGKKSDKRDDSDLVRSELEKPRGRKKTPVTEQEEKLGMDDLTKLVQEQKPKGSQRSRKRGHTASESDEQQWPEEKRLKEDILENEDEQNSPPKKGKRGRPPKPLGGGTPKEEPTMKTSKKGSKKKSGPPAPEEEEEEERQSGNTEQKSKSKQHRVSRRAQQRAESPESSAIESTQSTPQKGRGRPSKTPSPSQPKKNVRVGRSKQAATKENDSSEEVDVFQGSSPVDDIPQEETEEEEVSTVNVRRRSAKRERR [PDS5B]	49.2	49.4	0.216	-0.302	-0.564	0.534
MAHVGSRKRSRSRSRSRGRGSEKRKKKSRKDTSRNCSASTSQGRKASTAPGAEASPSPCITERSKQKARRRTRSSSSSSSSSSSSSSSSSSSSSSSSSDGRKKRGKYKDKRRKKKKKRKKLKKKGKEKAEAQQVEALPGPSLDQWHRSAGEEEDGPVLTDEQKSRIQAMKPMTKEEWDARQSIIRKVVDPETGRTRLIKGDGEVLEEIVTKERHREINKQATRGDCLAFQMRAGLLP [ARL6IP4]	52.6	52	0.853	-0.997	-1.78	-3.1
MAIKSIASRLRGSRRFLSGFVAGAVVGAAGAGLAALQFFRSQGAEGALTGKQPDGSAEKAVLEQFGFPLTGTEARCYTNHALSYDQAKRVPRWVLEHISKSKIMGDADRKHCKFKPDPNIPPTFSAFNEDYVGSGWSRGHMAPAGNNKFSSKAMAETFYLSNIVPQDFDNNSGYWNRIEMYCRELTERFEDVWVVSGPLTLPQTRGDGKKIVSYQVIGEDNVAVPSHLYKVILARRSSVSTEPLALGAFVVPNEAIGFQPQLTEFQVSLQDLEKLSGLVFFPHLDRTSDIRNICSVDTCKLLDFQEFTLYLSTRKIEGARSVLRLEKIMENLKNAEIEPDDYFMSRYEKKLEELKAKEQSGTQIRKPS [EXOG]	52.8	51.3	-0.0598	0.21	2.74	-1.52
